Patent US20200264162A1

Target: tau-RFP (full-length 2N4R wild-type tau fused to the N-terminus of TagRFP) (UniProt P10636)
Experiment: fluorescence lifetime FRET in live HEK293 cells, titration of tau-RFP acceptor to tau-GFP donor

- maximum energy transfer efficiency (E): 0.086
Substance: tau-GFP (full-length 2N4R wild-type tau fused to the N-terminus of EGFP) (from UniProt P10636 2-758)
